According to publication PMC8585947, “Structure of Escherichia coli cytochrome bd-II type oxidase with bound aurachin D” (Nature Communications, 2021):

Target: Escherichia coli cytochrome bd-II type oxidase (hetero-trimer of AppC, AppB and AppX) (E. coli) (UniProt P26459)
Experiment: cryo-EM structure; bd-II in amphipol A8-35, 5.6 mg/mL, incubated with aurachin D; 20 mM MOPS, 20 mM NaCl, pH 7.0; C2 symmetry imposed; 3.0 Å

## Escherichia coli cytochrome bd-II type oxidase (hetero-trimer of AppC, AppB and AppX) (from UniProt P26459 1-514; P26458 1-378; P24244 1-30) (complex)
  stoichiometry N: 2
